Legend:
Experiment in all cases: holdup assay
Parameters in all cases: key: below the threshold = too weak to quantify, mostly under pKd 3.1 to 4
TJP3_1, O95049 = target: T1, TJP3_1, O95049
T1 sequence (O95049 6-103, limits assumed, looked up): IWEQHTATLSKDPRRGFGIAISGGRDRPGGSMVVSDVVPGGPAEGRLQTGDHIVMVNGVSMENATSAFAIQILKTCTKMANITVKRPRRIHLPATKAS

Inadl_7, Q8NI35 = target: Inadl_7, Q8NI35
MPP5, Q8N3R9 = target: T2, MPP5, Q8N3R9
T2 sequence (Q8N3R9 251-346, limits assumed, looked up): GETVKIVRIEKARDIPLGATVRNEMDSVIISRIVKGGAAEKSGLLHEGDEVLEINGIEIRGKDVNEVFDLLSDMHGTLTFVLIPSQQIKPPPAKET

PTPN4, P29074 = target: T3, PTPN4, P29074
T3 sequence (P29074 512-599, limits assumed, looked up): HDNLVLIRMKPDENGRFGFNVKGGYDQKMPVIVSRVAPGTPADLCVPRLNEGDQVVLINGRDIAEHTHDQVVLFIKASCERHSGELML

AHNAK2, Q8IVF2 = target: AHNAK2, Q8IVF2
AHNAK2, Q8IVF2, sequence (Q8IVF2 108-193): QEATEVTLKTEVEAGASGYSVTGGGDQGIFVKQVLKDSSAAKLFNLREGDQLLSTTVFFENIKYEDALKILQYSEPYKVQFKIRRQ

RGS3, P49796-9 = target: RGS3, P49796-9
RGS3, P49796-9, sequence (P49796 other isoform, or with tags, fused parts or gaps): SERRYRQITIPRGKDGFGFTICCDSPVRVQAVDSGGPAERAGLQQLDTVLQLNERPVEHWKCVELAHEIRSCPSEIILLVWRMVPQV

NHERF1_2, O14745 = target: T4, NHERF1_2, O14745
T4 sequence (O14745 149-244, limits assumed, looked up): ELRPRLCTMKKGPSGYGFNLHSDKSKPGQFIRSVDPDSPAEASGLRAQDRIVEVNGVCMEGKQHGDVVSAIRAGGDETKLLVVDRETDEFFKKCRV

PDZRN4_2, Q6ZMN7 = target: PDZRN4_2, Q6ZMN7
PDZRN4_2, Q6ZMN7, sequence (Q6ZMN7 389-498): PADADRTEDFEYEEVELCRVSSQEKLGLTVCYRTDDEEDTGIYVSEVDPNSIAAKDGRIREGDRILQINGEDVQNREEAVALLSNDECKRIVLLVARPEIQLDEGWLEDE

PARD6G, Q9BYG4 = target: T5, PARD6G, Q9BYG4
T5 sequence (Q9BYG4 153-261, limits assumed, looked up): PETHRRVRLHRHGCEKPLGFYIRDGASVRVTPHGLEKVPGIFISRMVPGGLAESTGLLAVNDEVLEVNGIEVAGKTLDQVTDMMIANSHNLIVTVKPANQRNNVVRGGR

USH1C_1, Q9Y6N9 = target: T6, USH1C_1, Q9Y6N9
T6 sequence (Q9Y6N9 82-179, limits assumed, looked up): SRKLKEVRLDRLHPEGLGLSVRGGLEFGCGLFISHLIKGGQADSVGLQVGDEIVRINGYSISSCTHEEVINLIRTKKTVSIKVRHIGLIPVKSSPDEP

MPDZ_2, O75970 = target: T7, MPDZ_2, O75970
T7 sequence (O75970 252-347, limits assumed, looked up): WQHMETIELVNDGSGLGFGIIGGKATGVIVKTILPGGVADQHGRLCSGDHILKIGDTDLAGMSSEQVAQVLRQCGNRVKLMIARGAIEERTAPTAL

DLG5_2, Q8TDM6 = target: DLG5_2, Q8TDM6
DLG5_2, Q8TDM6, sequence (Q8TDM6 714-800): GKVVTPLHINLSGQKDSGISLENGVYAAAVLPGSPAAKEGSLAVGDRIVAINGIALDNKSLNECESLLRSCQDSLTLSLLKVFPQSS

NHERF1_1, O14745 = target: T8, NHERF1_1, O14745
T8 sequence (O14745 9-104, limits assumed, looked up): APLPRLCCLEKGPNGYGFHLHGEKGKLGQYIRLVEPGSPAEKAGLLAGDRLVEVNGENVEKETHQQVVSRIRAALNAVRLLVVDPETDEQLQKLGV

PTPN13_2, Q12923 = target: PTPN13_2, Q12923
PTPN13_2, Q12923, sequence (Q12923 1363-1462): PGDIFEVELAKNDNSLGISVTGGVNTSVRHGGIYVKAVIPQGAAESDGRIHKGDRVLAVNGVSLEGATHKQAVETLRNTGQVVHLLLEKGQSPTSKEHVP

SHROOM2, Q13796 = target: T9, SHROOM2, Q13796
T9 sequence (Q13796 21-118, limits assumed, looked up): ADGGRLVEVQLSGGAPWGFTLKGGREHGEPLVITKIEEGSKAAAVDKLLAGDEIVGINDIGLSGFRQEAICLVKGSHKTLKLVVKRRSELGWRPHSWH

MAGI3_6, Q5TCQ9 = target: MAGI3_6, Q5TCQ9
MAGI3_6, Q5TCQ9, sequence (Q5TCQ9 1014-1103): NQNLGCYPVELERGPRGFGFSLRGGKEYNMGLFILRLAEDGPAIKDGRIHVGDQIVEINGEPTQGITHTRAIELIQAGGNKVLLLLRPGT

MAST3, O60307 = target: MAST3, O60307
MAST3, O60307, sequence (O60307 945-1048): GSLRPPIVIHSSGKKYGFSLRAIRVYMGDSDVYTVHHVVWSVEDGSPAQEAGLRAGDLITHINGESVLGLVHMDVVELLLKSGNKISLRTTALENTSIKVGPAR

PDZD2_1, O15018 = target: T10, PDZD2_1, O15018
T10 sequence (O15018 80-192, limits assumed, looked up): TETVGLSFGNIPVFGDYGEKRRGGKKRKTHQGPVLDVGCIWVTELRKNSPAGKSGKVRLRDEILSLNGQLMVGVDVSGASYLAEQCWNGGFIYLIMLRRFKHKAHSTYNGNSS

NHERF2_1, Q15599 = target: NHERF2_1, Q15599
NHERF2_1, Q15599, sequence (Q15599 9-91): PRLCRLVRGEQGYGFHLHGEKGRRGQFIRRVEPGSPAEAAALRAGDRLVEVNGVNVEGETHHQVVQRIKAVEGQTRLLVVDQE

USH1C_2, Q9Y6N9 = target: T11, USH1C_2, Q9Y6N9
T11 sequence (Q9Y6N9 206-303, limits assumed, looked up): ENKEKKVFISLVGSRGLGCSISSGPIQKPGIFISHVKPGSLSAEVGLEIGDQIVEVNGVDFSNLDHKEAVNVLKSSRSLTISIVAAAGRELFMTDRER

RGS12, O14924 = target: T12, RGS12, O14924
T12 sequence (O14924 17-108, limits assumed, looked up): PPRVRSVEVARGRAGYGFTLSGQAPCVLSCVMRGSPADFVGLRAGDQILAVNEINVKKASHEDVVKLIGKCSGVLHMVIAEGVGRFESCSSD

MAGI3_5, Q5TCQ9 = target: MAGI3_5, Q5TCQ9
MAGI3_5, Q5TCQ9, sequence (Q5TCQ9 847-941): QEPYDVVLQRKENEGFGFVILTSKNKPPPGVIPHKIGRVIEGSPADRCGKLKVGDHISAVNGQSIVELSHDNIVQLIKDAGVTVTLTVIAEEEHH

RIMS2, Q9UQ26 = target: RIMS2, Q9UQ26
RIMS2, Q9UQ26, sequence (Q9UQ26 637-758): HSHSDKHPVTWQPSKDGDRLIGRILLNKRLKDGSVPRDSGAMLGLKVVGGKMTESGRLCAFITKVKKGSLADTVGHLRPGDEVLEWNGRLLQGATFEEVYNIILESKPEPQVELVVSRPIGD

SCRIB_4, Q14160 = target: SCRIB_4, Q14160
SCRIB_4, Q14160, sequence (Q14160 1095-1204): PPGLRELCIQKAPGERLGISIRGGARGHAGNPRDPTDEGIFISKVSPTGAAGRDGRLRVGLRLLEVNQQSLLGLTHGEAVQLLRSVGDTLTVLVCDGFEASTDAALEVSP

SIPA1L3, O60292 = target: T13, SIPA1L3, O60292
T13 sequence (O60292 961-1052, limits assumed, looked up): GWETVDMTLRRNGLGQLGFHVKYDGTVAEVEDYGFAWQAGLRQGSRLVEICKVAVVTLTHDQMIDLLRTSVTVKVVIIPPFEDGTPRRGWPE

[1] = modified: acetyl on K at position -1 from the C-terminal residue
[2] = modified: phospho on S at position -3 from the C-terminal residue
[3] = plain residues with an end cap or a label only (N-terminal biotin on a linker: (peg)3)

Inadl_7, Q8NI35, sequence (Q8NI35 1219-1332): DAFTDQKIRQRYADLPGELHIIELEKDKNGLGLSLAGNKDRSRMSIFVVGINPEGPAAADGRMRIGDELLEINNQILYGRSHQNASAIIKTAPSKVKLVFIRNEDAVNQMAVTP

B1: PTEN_Ac, P60484 (peptide)
chain: DEDQHTQITKV
B1 was tested, and the pKd (TJP3_1, O95049; [1]) was “below the threshold”, the pKd (Inadl_7, Q8NI35; [1]) was 4.2 and the pKd (MPP5, Q8N3R9; [1]) was “below the threshold”. For the same binder, the pKd (PTPN4, P29074; [1]) was “below the threshold”, the pKd (AHNAK2, Q8IVF2; [1]) was “below the threshold” and the pKd (RGS3, P49796-9; [1]) was “below the threshold”. The pKd (NHERF1_2, O14745; [1]) was “below the threshold”, the pKd (PDZRN4_2, Q6ZMN7; [1]) was “below the threshold” and the pKd (PARD6G, Q9BYG4; [1]) was “below the threshold”. The pKd (USH1C_1, Q9Y6N9; [1]) was “below the threshold”, the pKd (MPDZ_2, O75970; [1]) was 4.3 and the pKd (DLG5_2, Q8TDM6; [1]) was “below the threshold”. For the same binder, the pKd (NHERF1_1, O14745; [1]) was 4.85, the pKd (PTPN13_2, Q12923; [1]) was “below the threshold” and the pKd (SHROOM2, Q13796; [1]) was “below the threshold”. For the same binder, the pKd (MAGI3_6, Q5TCQ9; [1]) was 4.08, the pKd (MAST3, O60307; [1]) was 4.06 and the pKd (PDZD2_1, O15018; [1]) was “below the threshold”. For the same binder, the pKd (NHERF2_1, Q15599; [1]) was “below the threshold”, the pKd (USH1C_2, Q9Y6N9; [1]) was “below the threshold” and the pKd (RGS12, O14924; [1]) was “below the threshold”. For the same binder, the pKd (MAGI3_5, Q5TCQ9; [1]) was 3.97, the pKd (RIMS2, Q9UQ26; [1]) was “below the threshold” and the pKd (SCRIB_4, Q14160; [1]) was “below the threshold”. The pKd (SIPA1L3, O60292; [1]) was “below the threshold”.

B2: RPS6KA1_-3P, Q15418 (peptide)
chain: RRVRKLPSTTL
B2 was tested, and the pKd (TJP3_1, O95049; [2]) was “below the threshold”, the pKd (Inadl_7, Q8NI35; [2]) was “below the threshold” and the pKd (MPP5, Q8N3R9; [2]) was “below the threshold”. The pKd (PTPN4, P29074; [2]) was 3.54, the pKd (AHNAK2, Q8IVF2; [2]) was 3.54 and the pKd (RGS3, P49796-9; [2]) was “below the threshold”. For the same binder, the pKd (NHERF1_2, O14745; [2]) was “below the threshold”, the pKd (PDZRN4_2, Q6ZMN7; [2]) was “below the threshold” and the pKd (PARD6G, Q9BYG4; [2]) was “below the threshold”. For the same binder, the pKd (USH1C_1, Q9Y6N9; [2]) was “below the threshold”, the pKd (MPDZ_2, O75970; [2]) was “below the threshold” and the pKd (DLG5_2, Q8TDM6; [2]) was “below the threshold”. For the same binder, the pKd (NHERF1_1, O14745; [2]) was “below the threshold”, the pKd (PTPN13_2, Q12923; [2]) was “below the threshold” and the pKd (SHROOM2, Q13796; [2]) was 3.71. For the same binder, the pKd (MAGI3_6, Q5TCQ9; [2]) was “below the threshold”, the pKd (MAST3, O60307; [2]) was “below the threshold” and the pKd (PDZD2_1, O15018; [2]) was “below the threshold”. The pKd (NHERF2_1, Q15599; [2]) was “below the threshold”, the pKd (USH1C_2, Q9Y6N9; [2]) was “below the threshold” and the pKd (RGS12, O14924; [2]) was “below the threshold”. For the same binder, the pKd (MAGI3_5, Q5TCQ9; [2]) was “below the threshold”, the pKd (RIMS2, Q9UQ26; [2]) was “below the threshold” and the pKd (SCRIB_4, Q14160; [2]) was “below the threshold”. For the same binder, the pKd (SIPA1L3, O60292; [2]) was “below the threshold”.

B3: SARS-Cov2-3a, P0DTC3 (peptide)
chain: YDEPTTTTSVPL
For B3, the pKd (TJP3_1, O95049; [3]) was “below the threshold”, the pKd (Inadl_7, Q8NI35; [3]) was “below the threshold” and the pKd (MPP5, Q8N3R9; [3]) was “below the threshold”. For the same binder, the pKd (PTPN4, P29074; [3]) was “below the threshold”, the pKd (AHNAK2, Q8IVF2; [3]) was “below the threshold” and the pKd (RGS3, P49796-9; [3]) was 4.19. The pKd (NHERF1_2, O14745; [3]) was “below the threshold”, the pKd (PDZRN4_2, Q6ZMN7; [3]) was “below the threshold” and the pKd (PARD6G, Q9BYG4; [3]) was “below the threshold”. The pKd (USH1C_1, Q9Y6N9; [3]) was “below the threshold”, the pKd (MPDZ_2, O75970; [3]) was “below the threshold” and the pKd (DLG5_2, Q8TDM6; [3]) was “below the threshold”. The pKd (NHERF1_1, O14745; [3]) was “below the threshold”, the pKd (PTPN13_2, Q12923; [3]) was “below the threshold” and the pKd (SHROOM2, Q13796; [3]) was 3.81. The pKd (MAGI3_6, Q5TCQ9; [3]) was “below the threshold”, the pKd (MAST3, O60307; [3]) was “below the threshold” and the pKd (PDZD2_1, O15018; [3]) was “below the threshold”. The pKd (NHERF2_1, Q15599; [3]) was “below the threshold”, the pKd (USH1C_2, Q9Y6N9; [3]) was “below the threshold” and the pKd (RGS12, O14924; [3]) was “below the threshold”. For the same binder, the pKd (MAGI3_5, Q5TCQ9; [3]) was “below the threshold”, the pKd (RIMS2, Q9UQ26; [3]) was “below the threshold” and the pKd (SCRIB_4, Q14160; [3]) was “below the threshold”. For the same binder, the pKd (SIPA1L3, O60292; [3]) was “below the threshold”.
